Broadly, the Kd is the free concentration of one partner at which half of the binding sites on the other are occupied at equilibrium, for simple one-to-one binding. Read a low Kd as a tighter complex.

“And” between values parts separate entries of the source, which are not always exact repeats. Equal values may be shown once. Read-outs that look alike come from different tables or passages of the source.

Common to all, as to assay: SPR
Test [1] addresses T1, FcgRIIb (human, UniProt P31994).
T1 chain: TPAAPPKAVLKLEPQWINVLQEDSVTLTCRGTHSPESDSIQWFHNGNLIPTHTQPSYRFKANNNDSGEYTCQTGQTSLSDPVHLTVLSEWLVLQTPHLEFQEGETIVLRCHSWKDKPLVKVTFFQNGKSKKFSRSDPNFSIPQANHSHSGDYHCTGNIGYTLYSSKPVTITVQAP

The target of test [2] is T2, FcgRIa (human, UniProt P12314).
T2 chain: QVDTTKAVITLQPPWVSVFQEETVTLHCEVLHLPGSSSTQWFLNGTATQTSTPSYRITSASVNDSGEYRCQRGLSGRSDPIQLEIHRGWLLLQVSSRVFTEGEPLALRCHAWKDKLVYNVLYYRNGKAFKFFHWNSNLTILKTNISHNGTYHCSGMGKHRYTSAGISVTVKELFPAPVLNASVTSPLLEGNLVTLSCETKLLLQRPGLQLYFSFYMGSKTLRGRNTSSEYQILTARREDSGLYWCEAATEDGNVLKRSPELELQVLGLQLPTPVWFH

The target of test [3] is T3, FcgRIIIa V (human, UniProt P08637).
Test [4] concerns the target T4, FcgRIIIa F (human, UniProt P08637).
Test [5] deals with T5, FcgRIIa R (human, UniProt P12318).
T5 chain: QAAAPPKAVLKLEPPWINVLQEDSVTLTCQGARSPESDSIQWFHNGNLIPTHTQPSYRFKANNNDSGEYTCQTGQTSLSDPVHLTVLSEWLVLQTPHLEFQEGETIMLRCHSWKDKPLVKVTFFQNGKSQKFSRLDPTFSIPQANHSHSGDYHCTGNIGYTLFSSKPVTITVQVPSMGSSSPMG

Test [6] has as its target T6, FcgRIIa H (human, UniProt P12318).
T6 chain: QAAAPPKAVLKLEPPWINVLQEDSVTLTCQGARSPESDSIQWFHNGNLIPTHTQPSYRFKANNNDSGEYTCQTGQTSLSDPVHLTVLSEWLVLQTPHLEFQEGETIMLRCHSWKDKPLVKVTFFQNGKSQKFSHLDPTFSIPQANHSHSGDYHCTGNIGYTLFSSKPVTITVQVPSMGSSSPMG

For test [7], the target named is T4, FcgRIIIa F. The source holds these as a separate data set.
For test [8], the target named is T5, FcgRIIa R.
The target in test [9] is T2, FcgRIa.
For test [10], the target named is T6, FcgRIIa H.
Test [11] has as its target T1, FcgRIIb.
Test [12] addresses T3, FcgRIIIa V. This is another data set of the same source.
Test [13] has as its target T3, FcgRIIIa V. The source holds these as a separate data set.
Test [14] concerns the target T4, FcgRIIIa F. The source holds these as a separate data set.
Test [15] deals with T4, FcgRIIIa F. The source holds these as a separate data set.

T4 sequence (P08637 17-208): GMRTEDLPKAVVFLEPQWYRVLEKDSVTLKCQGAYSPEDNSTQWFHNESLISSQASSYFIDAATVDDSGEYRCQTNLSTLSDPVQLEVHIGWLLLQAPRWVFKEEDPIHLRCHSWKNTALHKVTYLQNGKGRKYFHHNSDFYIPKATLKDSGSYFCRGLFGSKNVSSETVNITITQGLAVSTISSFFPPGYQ
T3 sequence (P08637 17-208 F176V): as the sequence (P08637 17-208) above, with F160V counted along it

B1: H240-AK072/H240-BH076/L73-k0 (antibody)
chain 1: QDQLVQSGAEVKKPGASVKVSCKASGFNIKDTYIQWVRQAPGQGLEWMGRIDPLRKQTKYREKFEGRVTITADTSTNTAYMELSSLRSEDTAVYYCVRSGREFDYWGQGTLVTVSSASTKGPSVFPLAPSSKSTSGGTAALGCLVKDYFPEPVTVSWNSGALTSGVHTFPAVLQSSGLYSLSSVVTVPSSSLGTQTYICNVNHKPSNTKVDKKVEPKSCDKTHTCPPCPAPEYYWGPSVFLFPPKPKDTLMISRTPEVTCVVVDVSDEEPEVKFNWYVDGVEVHNAKTKPREEQYNATYRVVSVLTVLHQDWLNGKEYKCKVSNKALPAPIEKTISKAKGQPREPQVYTLPPSRKEMTKNQVSLTCLVKGFYPSDIAVEWESNGQPENNYKTTPPVLDSDGSFFLYSKLTVDKSRWQQGNVFSCSVMHEALHNRYTQKSLSLSP
chain 2: QDQLVQSGAEVKKPGASVKVSCKASGFNIKDTYIQWVRQAPGQGLEWMGRIDPLRKQTKYREKFEGRVTITADTSTNTAYMELSSLRSEDTAVYYCVRSGREFDYWGQGTLVTVSSASTKGPSVFPLAPSSKSTSGGTAALGCLVKDYFPEPVTVSWNSGALTSGVHTFPAVLQSSGLYSLSSVVTVPSSSLGTQTYICNVNHKPSNTKVDKKVEPKSCDKTHTCPPCPAPELLGGPSVFLFPPKPKDTLMISRTPEVTCVVVDVSHEEPEVKFNWYVDGVEVHNAKTKPREEQYNSTYRVVSVLTVLHQDWLNGKEYKCKVSNDALPMPIEETISKAKGQPREPQVYTLPPSREEMTKNQVSLTCLVKGFYPSDIAVEWESNGQPENNYKTTPPVLDSDGSFFLYSKLTVDKSRWQQGNVFSCSVMHEALHNHYTQESLSLSP
chain 3: DIQMTQSPSSLSASVGDRVTITCRASQDIHKYIAWYQQKPGQAPRLLIQYTSTLQPGVPSRFSGSGSGTDYTFTISSLQPEDIATYYCLQYEQLRTFGGGTKVEIKRTVAAPSVFIFPPSDEQLKSGTASVVCLLNNFYPREAKVQWKVDNALQSGNSQESVTEQDSKDSTYSLSSTLTLSKADYEKHKVYACEVTHQGLSSPVTKSFNRGEC
As for B1, the Kd is 2900 nM in test [1]; 0.24 nM in test [2]; 0.99 nM and 1.2 nM in test [3]; 3.7 nM and 2.9 nM in test [4]; 460 nM in test [5]; 79 nM and 72 nM and 69 nM in test [6]. Also, the Kd was 3.7 nM in test [7]; 240 nM and 280 nM in test [8]; 0.11 nM and 0.12 nM in test [9]; 130 nM in [10]; 1300 nM and 1400 nM and 1500 nM in test [11]; 0.98 nM in test [12].

B2: H240-AK072/L73-k0 (antibody)
chain 1: QDQLVQSGAEVKKPGASVKVSCKASGFNIKDTYIQWVRQAPGQGLEWMGRIDPLRKQTKYREKFEGRVTITADTSTNTAYMELSSLRSEDTAVYYCVRSGREFDYWGQGTLVTVSSASTKGPSVFPLAPSSKSTSGGTAALGCLVKDYFPEPVTVSWNSGALTSGVHTFPAVLQSSGLYSLSSVVTVPSSSLGTQTYICNVNHKPSNTKVDKKVEPKSCDKTHTCPPCPAPEYYWGPSVFLFPPKPKDTLMISRTPEVTCVVVDVSDEEPEVKFNWYVDGVEVHNAKTKPREEQYNATYRVVSVLTVLHQDWLNGKEYKCKVSNKALPAPIEKTISKAKGQPREPQVYTLPPSRKEMTKNQVSLTCLVKGFYPSDIAVEWESNGQPENNYKTTPPVLDSDGSFFLYSKLTVDKSRWQQGNVFSCSVMHEALHNRYTQKSLSLSP
chain 2: DIQMTQSPSSLSASVGDRVTITCRASQDIHKYIAWYQQKPGQAPRLLIQYTSTLQPGVPSRFSGSGSGTDYTFTISSLQPEDIATYYCLQYEQLRTFGGGTKVEIKRTVAAPSVFIFPPSDEQLKSGTASVVCLLNNFYPREAKVQWKVDNALQSGNSQESVTEQDSKDSTYSLSSTLTLSKADYEKHKVYACEVTHQGLSSPVTKSFNRGEC
In the case of B2, the results for the dissociation constant Kd in [13] and in test [14] were 29 nM and 300 nM, respectively.

B3: H240-BH076/L73-k0 (antibody)
chain 1: QDQLVQSGAEVKKPGASVKVSCKASGFNIKDTYIQWVRQAPGQGLEWMGRIDPLRKQTKYREKFEGRVTITADTSTNTAYMELSSLRSEDTAVYYCVRSGREFDYWGQGTLVTVSSASTKGPSVFPLAPSSKSTSGGTAALGCLVKDYFPEPVTVSWNSGALTSGVHTFPAVLQSSGLYSLSSVVTVPSSSLGTQTYICNVNHKPSNTKVDKKVEPKSCDKTHTCPPCPAPELLGGPSVFLFPPKPKDTLMISRTPEVTCVVVDVSHEEPEVKFNWYVDGVEVHNAKTKPREEQYNSTYRVVSVLTVLHQDWLNGKEYKCKVSNDALPMPIEETISKAKGQPREPQVYTLPPSREEMTKNQVSLTCLVKGFYPSDIAVEWESNGQPENNYKTTPPVLDSDGSFFLYSKLTVDKSRWQQGNVFSCSVMHEALHNHYTQESLSLSP
chain 2: DIQMTQSPSSLSASVGDRVTITCRASQDIHKYIAWYQQKPGQAPRLLIQYTSTLQPGVPSRFSGSGSGTDYTFTISSLQPEDIATYYCLQYEQLRTFGGGTKVEIKRTVAAPSVFIFPPSDEQLKSGTASVVCLLNNFYPREAKVQWKVDNALQSGNSQESVTEQDSKDSTYSLSSTLTLSKADYEKHKVYACEVTHQGLSSPVTKSFNRGEC
For B3, the values for the dissociation constant Kd in test [13] and in [14] were 5.3 nM and 26 nM, respectively.

B4: GpH7-TA54/GpH7-B78/GpL16-k0 (antibody)
chain 1: QVQLVQSGAEVKKPGASVTVSCKASGYTFTDYEMHWIRQPPGEGLEWIGAIDPKTGDTAYSESFQDRVTLTADKSTSTAYMELSSLTSEDTAVYYCTRFYSYTYWGQGTLVTVSSASTKGPSVFPLAPSSKSTSGGTAALGCLVKDYFPEPVTVSWNSGALTSGVHTFPAVLQSSGLYSLSSVVTVPSSSLGTQTYICNVNHKPSNTKVDKKVEPKSCDKTHTCPPCPAPEYLWGPDVFLFPPKPKDTLMISRTPEVTCVVVDVSHEDPEVKFNWYVDGVEVHNAKTKPREEQWNATYRVVSVLTVLHQDWLNGKEYKCKVSNKALPAPIEKTISKAKGQPREPQVYTLPPSRKELTKNQVSLTCLVKGFYPSDIAVEWESNGQPENNYKTTPPVLDSDGSFFLYSKLTVDKSRWQQGNVFSCSVMHEALHNRYTQKSLSLSP
chain 2: QVQLVQSGAEVKKPGASVTVSCKASGYTFTDYEMHWIRQPPGEGLEWIGAIDPKTGDTAYSESFQDRVTLTADKSTSTAYMELSSLTSEDTAVYYCTRFYSYTYWGQGTLVTVSSASTKGPSVFPLAPSSKSTSGGTAALGCLVKDYFPEPVTVSWNSGALTSGVHTFPAVLQSSGLYSLSSVVTVPSSSLGTQTYICNVNHKPSNTKVDKKVEPKSCDKTHTCPPCPAPELLGGPDVFLFPPKPKDTLMISRTPEVTCVVVDVSHEDPEVKFNWYVDGVEVHNAKTKPREEQYNSTYRVVSVLTVLHQDWLNGKEYKCKVSNKALPLPEEKTISKAKGQPREPQVYTLPPSRDELTKNQVSLTCLVKGFYPSDIAVEWESNGQPENNYKTTPPVLDSDGSFFLYSKLTVDKSRWQQGNVFSCSVMHEALHNHYTQESLSLSP
chain 3: DIVMTQSPLSLPVTPGEPASISCQASESLVHSNRNTYLHWYLQKPGQSPQLLIYKVSNRFSGVPDRFSGSGSGTDFTLKISRVEAEDVGVYYCSQNTHVPPTFGQGTKVEIERTVAAPSVFIFPPSDEQLKSGTASVVCLLNNFYPREAKVQWKVDNALQSGNSQESVTEQDSKDSTYSLSSTLTLSKADYEKHKVYACEVTHQGLSSPVTKSFNRGEC
Turning to B4, binding in test [15] was put at a Kd of 1 nM.

The values are drawn from US10766960 (dated 2020).
